The values below come from patent US7459156 (University of California, dated 2008).

The target of experiment [1] is T1, low affinity nerve growth factor receptor (LNGFR) on PC12 cells (rat, UniProt P07174 30-425).
T1 construct: whole, on cells
T1 sequence (looked up): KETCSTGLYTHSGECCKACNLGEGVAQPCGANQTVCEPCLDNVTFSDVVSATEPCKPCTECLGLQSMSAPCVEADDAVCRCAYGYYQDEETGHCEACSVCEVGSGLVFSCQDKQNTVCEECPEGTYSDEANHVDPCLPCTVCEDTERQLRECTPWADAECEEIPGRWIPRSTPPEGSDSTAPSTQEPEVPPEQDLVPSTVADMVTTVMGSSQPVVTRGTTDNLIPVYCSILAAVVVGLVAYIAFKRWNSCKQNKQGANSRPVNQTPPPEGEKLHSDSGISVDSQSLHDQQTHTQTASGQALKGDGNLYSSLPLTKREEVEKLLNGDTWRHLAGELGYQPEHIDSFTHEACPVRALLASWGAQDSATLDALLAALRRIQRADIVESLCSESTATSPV
Description: equilibrium ^125I-NGF binding to PC12 cells, Scatchard/LIGAND; 500 ug/ml RtrkA.EX IgG present; remaining low affinity site. The method, then: (§1) Binding Assays. […] Nonspecific binding was determined by addition of […] unlabeled NGF, and ranged from 2-25% of specific binding. Determinations were made in triplicate. The equilibrium binding data from two experiments were combined for the Scatchard analysis (Scatchard, G., *Analys of NY Acad. Sciences* 5:660-672 (1949)), which was performed with the program LIGAND (Munson, P. J. and Rodbard, D., *Anal. Biochem.*, 107, 220-239 (1980)). The Scatchard data are plotted as fmoles bound per 10^5 cells (equivalent to a volume of 2×10^-4 liters).
(§2) To analyze the characteristics of the NGF binding sites remaining in the presence of the anti-LNGFR or -trkA antibodies, equilibrium binding assays were performed from 3.5 to 4000 pM NGF. The results are plotted by the Scatchard method in FIG. 2. As is now well known, PC12 cells have NGF binding sites with differing kinetic characteristics, leading to low and high affinity binding sites (Schechter and Bothwell, 1981). This is observed in the biphasic graph of NGF binding determined in the presence of control IgG (FIG. 2, open squares; the binding parameters are presented in Table 1).
(§3) FIG. 2 is an analysis of anti-LNGFR- and RtrkA.EX-resistant NGF binding sites. […] Nonspecific binding was determined as in FIG. 1A; values were determined in triplicate.

Experiment [2] has as its target T2, rat trkA receptor (full length, 140 kD) (rat, UniProt P35739 33-799).
T2 construct: whole, on cells; also called p140trk; native trkA receptor protein
As to the kind of experiment: equilibrium ^125I-NGF binding to PC12 cells, Scatchard/LIGAND; 500 ug/ml anti-LNGFR IgG present; remaining high affinity site. The method, then: as §1, §2, §3

Experiment [3] addresses T1, low affinity nerve growth factor …. As to the kind of experiment: equilibrium ^125I-NGF binding to PC12 cells, Scatchard/LIGAND; control IgG present; low affinity site. The method, then:
as §1, §2, §3

The target of experiment [4] is T2, rat trkA receptor (full length, 140 kD). As to the kind of experiment: equilibrium ^125I-NGF binding to PC12 cells, Scatchard/LIGAND; control IgG present; high affinity site. The procedure:
as §1, §2, §3

T2 sequence (P35739 33-799): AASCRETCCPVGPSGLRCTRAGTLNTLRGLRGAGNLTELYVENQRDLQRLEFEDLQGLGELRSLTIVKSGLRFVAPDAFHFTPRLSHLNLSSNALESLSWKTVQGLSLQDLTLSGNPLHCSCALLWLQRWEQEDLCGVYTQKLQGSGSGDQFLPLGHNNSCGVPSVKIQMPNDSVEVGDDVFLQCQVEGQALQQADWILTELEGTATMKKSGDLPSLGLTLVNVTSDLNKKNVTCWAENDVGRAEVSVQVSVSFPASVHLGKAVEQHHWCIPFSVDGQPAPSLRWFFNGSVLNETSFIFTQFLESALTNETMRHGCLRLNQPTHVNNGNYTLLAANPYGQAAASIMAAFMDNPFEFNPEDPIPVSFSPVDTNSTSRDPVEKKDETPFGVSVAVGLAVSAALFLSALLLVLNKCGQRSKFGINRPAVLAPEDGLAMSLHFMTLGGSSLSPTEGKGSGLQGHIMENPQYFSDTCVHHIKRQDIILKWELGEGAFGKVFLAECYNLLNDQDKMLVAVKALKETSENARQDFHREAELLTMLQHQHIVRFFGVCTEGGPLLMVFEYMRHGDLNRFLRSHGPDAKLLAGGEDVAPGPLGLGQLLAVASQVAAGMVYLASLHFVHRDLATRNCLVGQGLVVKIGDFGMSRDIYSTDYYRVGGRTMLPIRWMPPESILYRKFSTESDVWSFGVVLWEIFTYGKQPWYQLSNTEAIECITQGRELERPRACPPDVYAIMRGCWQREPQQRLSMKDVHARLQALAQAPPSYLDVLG

B1: nerve growth factor (NGF) (ligand, mouse, UniProt P01139 122-241, looked up)
chain: SSTHPVFHMGEFSVCDSVSVWVGDKTTATDIKGKEVTVLAEVNINNSVFRQYFFETKCRASNPVESGCRGIDSKHWNSYCTTTHTFVKALTTDEKQAAWRFIRIDTACVCVLSRKATRRG
modifications: 125I label on the NGF used in the binding assays
notes: mature; The species is stated only for the unlabelled NGF; the labelled NGF was bought
Consider B1, for which the Kd (as a rule, the equilibrium constant for the complex coming apart) stood at 1.1 nM in experiment [1], 0.092 nM in experiment [2], 1.8 nM in experiment [3] and 0.038 nM in experiment [4].
